Data from patent US7494767B2, “Assay for TSG101 as inhibitors of HIV production” (priority 2001, dated 2009).

Legend:
HIV-1 particles = assay: Release of HIV-1 virus-like particles from transfected COS-1 cells (Western blot of particles, anti-CA); assay type: cell-based; conditions: for amount of mature CA in released virus, of the control (0 μM pa) level: COS-1 cells with rev, pol and wild-type gag
viral protein (Gag) = assay: Intracellular steady-state level of viral proteins in COS-1 cells (S1 and P1 fractions, Western blot, anti-CA); assay type: cell-based, HIV-1; conditions: for Gag Δp6 in S1 and P1 fractions: gagΔp6, same conditions; for viral protein in P1 fraction / viral protein in S1 fraction: wild-type gag, pol, rev, conditions of greatest inhibition
Tsg101 = target: T1, Tsg101 (Homo sapiens, UniProt Q99816); conditions: N- or C-terminally deleted Pr55^Gag fused to GAL4 DNA-binding domain; FIG. 1A
T1 construct: expressed in transfected cells; host or cells: Saccharomyces cerevisiae Y153
Procedure: 2-hybrid assay. […] Vectors pGBT9 and pGAD424 encoding PR55^Gag or Tsg101 sequences as GAL4 activation and binding domain fusion proteins were transformed into Saccharomyces cerevisiae Y153 using procedures previously described (Bartel, P. L. & Fields, S., 1995, Methods Enzymol. 254,241-263). Briefly, interactions were detected using a selection for Trp and Leu prototrophy followed by quantitative assay for LacZ activation. […] Mapping of the interacting domain was performed using vectors encoding the DNA-binding or activation domain of the yeast GAL4 transcriptional activator protein fused to truncations, deletions or point mutations of the proteins. […] Expression of all GAL4 fusions was checked by analysis of yeast cell extracts by SDS-gel electrophoresis and Western blotting with an antibody directed against the GAL4 binding domain (Upstate Biochemical) and GAL4 transactivation domain (Santa Cruz).

[1] = increasing expression, pa 1 and 5 μM, wild-type gag

Molecule	amount of mature CA in released virus, of the control (0 μM pa) level (HIV-1 particles; 1 μM pa)	amount of mature CA in released virus, of the control (0 μM pa) level (HIV-1 particles; 5 μM pa)	release of immature particles containing GagΔp6 (HIV-1 particles; Tsg101 overexpression, pa 0, 1, 5 μM, gagΔp6)	Gag Δp6 in S1 and P1 fractions (viral protein (Gag))	viral protein in P1 fraction (viral protein (Gag))	viral protein in S1 fraction (viral protein (Gag))	Gag processing in released particles (HIV-1 particles; [1])	release of virus particles (HIV-1 particles; [1])	LacZ reporter gene activation signal (Tsg101)
pIND-h-Tsg101-FLAG: FLAG-tagged wild-type human Tsg101 overexpressed from an ecdysone-inducible plasmid (protein, left off: small tags and cut ends, FLAG-tagged wild-type human Tsg101 overexpressed from an ecdysone-inducible plasmid) MAVSESQLKKMVSKYKYRDLTVRETVNVITLYKDLKPVLDSYVFNDGSSRELMNLTGTIPVPYRGNTYNIPICLWLLDTYPYNPPICFVKPTSSMTIKTGKHVDANGKIYLPYLHEWKHPQSDLLGLIQVMIVVFGDEPPVFSRPISASYPPYQATGPPNTSYMPGMPGGISPYPSGYPPNPSGYPGCPYPPGGPYPATTSSQYPSQPPVTTVGPSRDGTISEDTIRASLISAVSDKLRWRMKEEMDRAQAELNALKRTEEDLKKGHQKLEEMVTRLDQEVAEVDKNIELLKKKDEELSSALEKMENQSENNDIDEVIIPTAPLYKQILNLYAEENAIEDTIFYLGEALRRGVIDLDVFLKHVRLLSRKQFQLRALMQKARKTAGLSDLY	~60%	~30%	not significantly affected	detected in both S1 and P1 fractions	no detectable viral protein	no detectable viral protein			
SD5-59 (protein, left off: small tags and cut ends) MAVSESQLKKMVSKYKYRDLTVRETVNVITLYKDLKPVLDSYVFNDGSSRELMNLTGTIPVPYRGNTYNIPICLWLLDTYPYNPPICFVKPTSSMTIKTGKHVDANGKIYLPYLHEWKHPQSDLLGLIQVMIVVFGDEPPVFSRPISASYPPYQATGPPNTSYMPGMPGGISPYPSGYPPNPSGYPGCPYPPGGPYPATTSSQYPSQPPVTTVGPSRDGTISEDTIRASLISAVSDKLRWRMKEEMDRAQAELNALKRTEEDLKKGHQKLEEMVTRLDQEVAEVDKNIELLKKKDEELSSALEKMENQSENNDIDEVIIPTAPLYKQILNLYAEENAIEDTIFYLGEGGVIDLDVFLKHVRLLSRKQFQLRALMQKARKTAGLSDLY				accumulated at higher levels in both fractions	no protein was found	detectable levels of viral protein	accumulation of particle-associated uncleaved Gag precursor	permitted release of virus particles	
p1-p6: p1-p6 region of HIV-1 Pr55Gag fused to GAL4 DNA-binding domain (protein) MKLLSSIEQACDICRLKKLKCSKEKPKCAKCLKNNWECRYSPKTKRSPLTRAHLTEVESRLERLEQLFLLIFPREDLDMILKMDSLQDIKALLTGLFVQDNVNKDAVTDRLASVETDMPLTLRQHRISATSSSEESSNKGQRQLTVSGKIWPSYKGRPGNFLQSRPEPTAPPFLQSRPEPTAPPEESFRSGVETTTPPQKQEPIDKELYPLTSLRSLFGNDPSSQ									retained
